Target: T1, WC-1 (Neurospora, UniProt Q01371 1-1167)
T1 construct: Tested either as native protein in Neurospora nuclear extracts or as 'full-length WC-1' made in reticulocyte lysate; also called White Collar-1; WC-1 protein
Assay: EMSA supershift with nuclear extracts; complexes absent with extracts from wc-1 ER45 or wc-2 KO strains
Description: The presence of WC-1 and WC-2 in the LRE-bound complexes was confirmed by the absence of complexes in binding reactions performed using nuclear protein extracts from wc-1^ER45 (loss-of-function) or wc-2^KO strains (Collett, et al. (2002) Genetics 160:149). […] Because WC-1 and WC-2 are known to complex with FRQ (Denault, et al. (2001) EMBO J. 20:109; Cheng, et al. (2001) EMBO J. 20:101; Merrow, et al. (2001) EMBO J. 20:307), the presence of FRQ in the complexes bound to the LREs was also determined using FRQ antiserum and extracts from an frq^KO strain. FRQ was not in the dark- or light-induced complexes bound to the LREs, nor was FRQ necessary for the formation of the complexes.
Binding reactions using nuclear protein extracts contained 1× binding buffer, […] KCl, 0.1 μg poly(dI-dC), 1 μl probe, 0.5 μl of normal rabbit sera (Pocono Rabbit Farm, Canadensis, Pa.), and 3 μg of nuclear protein extract, which was added last to the binding reactions, in a total volume of 20 μl. In reactions that contained antisera, 1 μl anti-WC-1, 1 μl anti-WC-2, or 0.5 μl anti-FRQ was used. Binding reactions using in vitro translated proteins contained 1× binding buffer, 1 μg poly(dI-dC), 1 μl probe, and 6 μl of the in vitro translation reaction in a total volume of 20 μl. […]

T1 sequence (Q01371 whole entry): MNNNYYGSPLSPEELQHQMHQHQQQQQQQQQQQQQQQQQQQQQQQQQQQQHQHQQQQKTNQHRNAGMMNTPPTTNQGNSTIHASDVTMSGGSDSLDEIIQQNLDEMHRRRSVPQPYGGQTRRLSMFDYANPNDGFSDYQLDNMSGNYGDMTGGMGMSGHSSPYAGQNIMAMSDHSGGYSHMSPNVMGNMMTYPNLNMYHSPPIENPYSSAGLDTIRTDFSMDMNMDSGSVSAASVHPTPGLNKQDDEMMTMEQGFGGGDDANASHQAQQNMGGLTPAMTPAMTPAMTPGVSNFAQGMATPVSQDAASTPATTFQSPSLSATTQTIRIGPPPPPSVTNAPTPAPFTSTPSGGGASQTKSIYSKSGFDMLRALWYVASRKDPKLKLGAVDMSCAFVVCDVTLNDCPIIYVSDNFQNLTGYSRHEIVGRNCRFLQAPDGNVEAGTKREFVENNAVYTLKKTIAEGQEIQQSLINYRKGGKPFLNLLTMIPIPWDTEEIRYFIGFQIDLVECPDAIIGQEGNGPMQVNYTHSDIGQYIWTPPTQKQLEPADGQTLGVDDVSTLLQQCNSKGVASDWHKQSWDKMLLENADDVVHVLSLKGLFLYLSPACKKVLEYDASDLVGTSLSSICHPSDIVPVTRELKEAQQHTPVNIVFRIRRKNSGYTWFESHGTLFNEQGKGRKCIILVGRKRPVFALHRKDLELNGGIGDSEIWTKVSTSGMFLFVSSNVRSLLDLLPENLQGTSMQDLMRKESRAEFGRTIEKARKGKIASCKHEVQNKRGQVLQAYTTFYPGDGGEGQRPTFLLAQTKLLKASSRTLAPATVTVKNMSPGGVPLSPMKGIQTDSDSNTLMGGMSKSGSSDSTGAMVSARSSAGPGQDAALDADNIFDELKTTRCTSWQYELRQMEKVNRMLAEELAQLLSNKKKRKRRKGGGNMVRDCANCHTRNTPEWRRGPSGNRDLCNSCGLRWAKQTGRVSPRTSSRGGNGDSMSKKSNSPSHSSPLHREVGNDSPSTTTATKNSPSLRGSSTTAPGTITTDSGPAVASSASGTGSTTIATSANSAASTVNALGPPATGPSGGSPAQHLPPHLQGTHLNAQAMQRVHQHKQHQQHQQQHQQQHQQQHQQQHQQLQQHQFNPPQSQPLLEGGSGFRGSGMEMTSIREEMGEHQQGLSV

B1: WC-2 (other, Neurospora, UniProt P78714 1-530, looked up)
chain: MSHGQPPPGSSMYGFGAMGMGSGMGSGMGSGMGTGMGTGMGTGMSASQMTSDPQDMMSLLDTSVFPGFDGMSMSLDVGDSMSNPFTPVSVPPPLPAGNAGPSHVGVCGGHGAPDQLFSPDDLIATSMSSAGPMIATPTTTTSGPSGGPSSGGGSTLTEFTKRRNWPAKVVEELQDWEHILDANGRIKHVSPSVEPLTGYKPPEIIDLFLRDLIHPDDVGVFTAELNEAIATGSQLRLFYRFRKKDGNWTIFETVGHAHIAAAKFAPNPQNQSPFCQAVFMMARPYPTKNAGLLDSFLEHKIENERLKRRIAELRREEQEEQEESHRTWRMSQEGRSDVTPSDDTATQMGMTPFYIPMNAQADVMMPPPSQPASSLNIALTRENLEGIAGSRPDSIREKMLRYEGNHADTIEMLTGLKYQEGERSHGITTGNASPTLIKGDAGIAIPLDRDPRTGEKKKKIKVAEEYVCTDCGTLDSPEWRKGPSGPKTLCNACGLRWAKKEKKKNANNNNNGGGIGGHNDIHTPMGDHMG
notes: Transcription factor; Tested either as native protein in Neurospora nuclear extracts or as 'full length WC-2' made in reticulocyte lysate; also called White Collar-2; WC-2 protein
  binding result: binds

— patent publication US20040038400A1 (TRUSTEES OF DARTMOUTH COLLEGE, published 2004)
